Test results from the DeepSol protein solubility set.

test: soluble on expression in E. coli; label from the status in PepcDB or PDB records

Row | Sequence | soluble on expression in E. coli
1 | MATFEEVSVLGFEEFDKAVKEHESKTIFAYFSGSKDTEGKSWCPDCVEAEPVIREGLKHVTEDCVFIYCQVGDKPYWKDPNNDFRQKLKITAVPTLLKYGTPQKLVESECCQSSLVEMIFSED | soluble
2 | MGTLLATRLKNRRKELKMSQRELAEGICKQGQISRLESGEFTPGADFLHALAKKLKVSMDYFFDEQVVEEVNELSEFKKLAQTFITNRNYESLKYIYELENVKAHRLSLADKFYMEWIKSLIDFYFYGQKEEAITRLENMLPQLNVSDLNYLQVSNTLFNFYYDIEDLERFNEIRDKLEHQVNQLNLNTIEELELSIKFNYNVCRYLWLQKNIEEAITKITATIKQCKEYRTTYLLADLYLLMGSVSENFSSKSSVKEYFETAHFLYKLEENMSMALKVEHYFADITE | not soluble
3 | MGSDKIHHHHHHMNSLSFDFSDDFRPLAAKMRPRCLADYIGQSHLLGKDKPLRRAIEAGYAHSMILWGPPGTGKTTLAEIIAQHFDAEVERLSAVTSGVKEIREAIEQAKYNRQAGRKTLLFVDEVHRFNKSQQDAFLPYIEDGTVIFIGATTENPSFELNNALLSRARIYLLKPLQADEIEQILQNALQDKQNGLGQEHFILADEVLKLLADYVNGDARYALNCLALMADMAESSPQGKVLNQALLIAVLGERNARFDKGGDHYYDLISALHKSIRGSAVDAALYWYARILTAGGDPLYVARRLLAIASEDIGNADPRAMQIAISAWDCYSRVGAYEGERAIAQAVIYLAVAPKSNAVYQAFNQAKQLAKQAKDYDVPLHLRNAPTALMKSLAYGEEYRYAHNEANAYAAGENYFPEQLQDTQFYFPTERGMEKQIKEKLAWLKMQDHASEQQRYKR | not soluble
4 | MLHTTQLYQHVPETRWPIVYSPRYNITFMGLEKLHPFDAGKWGKVINFLKEEKLLSDSMLVEAREASEEDLLVVHTRRYLNELKWSFAVATITEIPPVIFLPNFLVQRKVLRPLRTQTGGTIMAGKLAVERGWAINVGGGFHHCSSDRGGGFCAYADITLAIKFLFERVEGISRATIIDLDAHQGNGHERDFMDDKRVYIMDVYNRHIYPGDRFAKQAIRRKVELEWGTEDDEYLDKVERNIKKSLQEHLPDVVVYNAGTDILEGDRLGGLSISPAGIVKRDELVFRMVRGRRVPILMVTSGGYQKRTARIIADSILNLFGLGLIGPESPSVSAQNSDTPLLPPAVP | soluble
5 | MGSDKIHHHHHHMELKARAVGVEIIPKGKIIYYSVPNGDEYERGDLVLVLGDFGLEVGKVLIPPREVVIDEVGYELKAVIRKLTDEDLEQYRKNVEDALKAFQICKQKIKEHGLPMKLLYAKYTFDRTRLIFFFSAEGRVDFRELVRDLAKIFKTRIELRQVGVRDEMKFFGGLGLCGLPTCCSTFLREFTSVTLKHAKKQQMMINPAKISGPCRRLLCCLTYEYDFYEKELEGIPDEGSTITYEGKRYKVVNVNVFLRTVTLFSEQEGEMIKLPFDYFRKGE | not soluble
6 | MGHHHHHHSHMTDPLAPEGDNRVWYMDGYHNNRFVREYKSMVDFMNTDNFTSHRLPHPWSGTGQVVYNGSIYFNKFQSHIIIRFDLKTETILKTRSLDYAGYNNMYHYAWGGHSDIDLMVDESGLWAVYATNQNAGNIVVSRLDPVSLQTLQTWNTSYPKRSAGEAFIICGTLYVTNGYSGGTKVHYAYQTNASTYEYIDIPFQNKYSHISMLDYNPKDRALYAWNNGHQILYNVTLFHVIRSDEL | not soluble
7 | MSLNGTFEATKSCPAYLSKNRKSNPDNLMVEPNQKYQLKEINKTKPDWLRIQFSDHQPNLRWVSVDCGVIEYTERPKASCDLSPGMADSYVLALSSQPGFCETYGYEIGKPECLKLTKTVYQANHLILHGLWPNQEACGHNYGYCGISPRTNHCDYSPLDLSSDVAQNLKKLMPSYNYGSCLERHEWNKHGSCQDLSTDGYFSLAMRLTTEVNNTEFGQYLTAHRGDTVKLTTLRELIKRSFGENNTGKVTLSCKNGILVDIYVQLPALIPFKESLESLVDKASEGHHHHHH | not soluble
8 | QGALYLVPTPIGNLEDMTFRAIRMLKEADIIAAEDTRNTVKLLNHFEITTRMTSYHQFTKENKEDNIIQRMLDGEVVALVSDAGMPSISDPGYELVQNALNANIPVIPLPGA | not soluble
9 | MGSDKIHHHHHHMLPNLKKALDGIVVCDFSWVGAGPIATNVLGQCGAEVIKIESKSRPDLLRTGGPFKDGINEGLERSGYFANRNPNKKGIALDMSHPKARAVAVRLIRKSDIVINNFRVGQMEKWGLGWEDVRKINPRIIYVTMSLQGETGPQKSYMGFGVNLNALCGLTAQACFPGERPFGTGTNYTDHVMAPSHTLFGIMAALLEREQTGEGQTVAISQLKSAISMAPTSAMTYAANGDTLGPAGLSDPNAAPHGLFTTLGYRRWIAIAVFSEDEWRALKKVMGNPAWAEDGKFGSLQSRKENEAELNEHMEAWTSRQHADKIMDELLRNGVRAGVVNDARGAIEDDHLREREFWSYLDHPVMGRTLYNRAPIRLSKTPLRMETAAPLLGQHTRDVLKGMLDYTDEEIAMLSEEKVLV | not soluble
10 | MSLVDMVNRPYERAFEQHALANPDVLCISADLTSSCEIDKFRDNHPDQFLSMGMAEQNMMSFCGGLGLAGFRPFVHTFGVFTYRRPYDQLMASIAYPRRKVRIMGFLPGITTPGGMTHQAIEDIAVMRSMPNMTILETGDATEVESICAAADSIDGPVYCRVLRGSVPRLFDTPIKVGEMREISLGDDVLIVTAGITTEEAMRATRALEAAGVSVRHLHLHTIKPFDAGALLDHIGAVRGGVITLENHVTEGGIGSLVAEVMADNGIGKKLRRLGLKDTYAHGGSRAYLMRYYGLDALALTRGVEDLLGQPLGITEEDLAQARVEAVHSLAKAEGEGHHHHHH | not soluble
11 | SLKGRWVKYLLMGTVVAMLAACSSKPTDRGQQYKDGKFTQPFSLVNQPDAVGAPINAGDFAEQINHIRNSSPRLYGNQSNVYNAVQEWLRAGGDTRNMRQFGIDAWQMEGADNYGNVQFTGYYTPVIQARHTRQGEFQYPIYRMPPKRGRLPSRAEIYAGALSDKYILAYSNSLMDNFIMDVQGSGYIDFGDGSPLNFFSYAGKNGHAYRSIGKVLIDRGEVKKEDMSMQAIRHWGETHSEAEVRELLEQNPSFVFFKPQSFAPVKGASAVPLVGRASVASDRSIIPPGTTLLAEVPLLDNNGKFNGQYELRLMVALDVGGAIKGQHFDIYQGIGPEAGHRAGWYNHYGRVWVLKTAPGAGNVFSG | not soluble
12 | MGSDKIHHHHHHMSIARLREFVSDLTDIVGDDLHEAALLDRMRAPMTRLLAKDDWLPDAFAQPHPEFYQQYLLHCDPKQRFSVVSFVWGPGQKTPIHDHTVWGMIGMLRGSEHSTRFEVVGPDQPLRVAQTDVLEEGGIDVVSPSVGDVHQVSNVYDDRVSISIHVYGANIGRVRRHVYNGETGGVKEFVSGFSSSVVPNLWNAN | not soluble
13 | MDITLRTLTENDLPFVKDIYDYYTLHTTVVYFVHCASIDELKNYIPVGDPVYRSFIIETPEGAPCGFCYFARFKPREAFRISVELTLYLKPEFTGRGYGKQAILRLEEIIRQEGFSNIMALISGENEASIRLFEKCGFECCANIRQVAEKFGKKLDLRMYQKIISDNSHLTP | not soluble
14 | MNRYPGIPRNEWSAGWKRTACIVKAEDGSWGFGFTLHSGVTERIINDHLSKILIGRNCMSTEMLWDVMQQSTISYGTSGLSSFAISAVDNAIWDLKGKILDRPVYELIGGPQKDKIFCYASNTSFEYGTKNSIEWFLELGFKAVKLFLREGPESNLEGINRAEQLVASTREQVGKDVEIAVDAWMSLNNEYAVRLAEVLKPYRIKWLEDYLNPENLDGYQNLRNRIPWQTLATGEHWYSLYPFALAASKGIVDIFQPDLNWVGGITAGIKICHLAEAHGLSVIPHASTNYPYGQHLAFSMPSVPWAERSEGVSPPGVPLEEMVLLPGTPVIKDGYIIPSDAPGFGLEITEDWLRDRAV | soluble
15 | MDFLNDFDPSDDENNCKHQEKPTYLPFKPNFHEKYWYRNALKENQTATAITEIDLFRVADCYHNGDFECAENILTGLRESTKNNRTHEIMLIDSLLQCSIKKTSELSSPETSISLQFLSYYESILVDFGDQIQFLRTKAFLLSKLPFTSNYQKEFKNTMALLCQLCGSFENWQLFEIGSKYFTKLEMFGLKLKMKKVLKYEIDHSKGFIQEKLKKRLEKITKELNELEGELESNIIESIHSSINSHKDTTTVESTPNSEFRAHESRSKNKLIPVSDQPATIEDFFHRFPFLSF | not soluble
